The source of these data is patent publication US20220162338A1 (SICHUAN KELUN BIOTECH BIOPHARMACEUTICAL, published 2022).

Assay [1] addresses T1, human FXIa (activated human coagulation Factor XI) (human, UniProt P03951 19-387; P03951 388-625).
T1 construct: Bought protein; also called FXIa protein; FXIa antigen
In words: BLI (Octet ForteBio), ratio of KD against BAY-1213790. For orientation: In BLI a coated tip is dipped into the sample, and binding shifts an interference pattern.
Protocol: (§1) The specific experimental steps were as follows: the streptavidin biosensors was first bound with the biotin-labeled antibody to be tested to reach a response signal value of 0.8 nm, then bound with FXIa protein (3.2, 1.6, 0.8, 0.4, 0.2, 0.1, 0.05, and 0 μg/mL) for 5 minutes, then dissociation was performed for 7 minutes, and the bivalent analysis model was used for all fitting analysis.

In assay [2] the target is T1, human FXIa (activated human coagulation …). In words: BLI (Octet ForteBio), ratio of KD against 14E11.
Protocol: as §1
Assay [3] shares this target. In words: BLI (Octet ForteBio), biotin-labeled antibody on streptavidin sensor, FXIa in solution, bivalent model.
Protocol: as §1
Assay [4] addresses T2, human FXI (human coagulation Factor XI) (human, UniProt P03951 19-625).
T2 construct: Bought protein; Biotin-labeled form (HCXI-0150-B) was used in the hybridoma screen; also called FXI protein; FXI antigen
In words: BLI (Octet Fortebio), antibody on AHC (anti-human-Fc) sensor, FXI in solution.
Protocol: Octet Fortebio® was used for the affinity determination of chimeric and humanized antibodies. […] The data obtained were analyzed by Octet data analysis software.

Assay [5] deals with T1, human FXIa (activated human coagulation …). Nature of the assay: ELISA, FXIa coated at 1 µg/mL, HRP goat-anti-human detection. A general note: ELISA stands for enzyme-linked immunosorbent assay.
For assay [6] the target is unchanged. In words: cell-based or functional assay.
The target of assay [7] is T3, human FXI antigen expressed in 293F cells (human, UniProt P03951 19-625, limits assumed).
T3 construct: also called FXI antigen (PMD-F11 plasmid cloned into PLVX-IRES-PURO, 293F)
In words: ELISA, FXI antigen (293F) coated at 1 µg/mL, HRP goat-anti-human detection.

Assay [8] has as its target T1, human FXIa (activated human coagulation …). In words: cell-based or functional assay. This is another data set of the same source.
The target is the same in assay [9]. Nature of the assay: cell-based or functional assay. The source holds these as a separate data set.

B1: murine antibody 36G9.10 (antibody, mouse IgG1, V domains shown)
VH: EVQLQQSGAELVKPGASVKLSCTASGFNIKDTYIHWVKQRPEQGLEWIGRIDPANDNTKYDPKFQGKATITADTSSNTAYLQLSSLTSEDSAVYYCAQDYDGFAMDYWGQGTSVTVSS
VL: DIQMTQSPSSLSASLGGKVTITCKASQDINKYITWFQHKPGKGPRLLIHYTSTLQPGIPSRFSGSGSGRDYSFSISNLEPEDSATYYCLQYDYLLTFGGGTKLEIK
notes: also called 36G9.10 murine antibody; murine anti-human FXI/FXIa monoclonal antibody
One may read the koff as the rate constant with which the complex falls apart. The low end stands for a long-lived complex, the high end for a short-lived complex. As a reminder, the kon is a measure of how fast the partners come together. B1: the “fold stronger affinity than BAY-1213790” value in [1] is 2.5 times. Further, in assay [2], the “fold stronger affinity than 14E11” value turned out to be 1.7 times. In assay [3], this molecule gave a Kd of 0.48 nM, a koff of 0.00072 s⁻¹ and a kon of 1.5e+06 M⁻¹ s⁻¹.

B2: chimeric antibody 36G9.10-hz00 (antibody, human IgG1, kappa, N297A, V domains shown)
VH: EVQLQQSGAELVKPGASVKLSCTASGFNIKDTYIHWVKQRPEQGLEWIGRIDPANDNTKYDPKFQGKATITADTSSNTAYLQLSSLTSEDSAVYYCAQDYDGFAMDYWGQGTSVTVSS
VL: DIQMTQSPSSLSASLGGKVTITCKASQDINKYITWFQHKPGKGPRLLIHYTSTLQPGIPSRFSGSGSGRDYSFSISNLEPEDSATYYCLQYDYLLTFGGGTKLEIKR
notes: Murine variable regions grafted to human IgG1 (N297A) and human kappa constant regions
On to B2, for which, in [4], the Kd is 0.00366 nM, the koff came to 2.39e-05 s⁻¹ and the kon came to 6.52e+06 M⁻¹ s⁻¹.

B3: BAY-1213790 (antibody, V domains shown)
VH: EVQLLESGGGLVQPGGSLRLSCAASGFTFSQYGMDWVRQAPGKGLEWVSGIGPSGGSTVYADSVKGRFTISRDNSKNTLYLQMNSLRAEDTAVYYCTRGGPYYYYGMDVWGQGTTVTVSS
VL: DIQMTQSPSSLSASVGDRVTITCQASQDISNYLNWYQQKPGKAPKLLIYDASNLETGVPSRFSGSGSGTDFTFTISSLQPEDIATYYCQQADSFPVTFGGGTKVEIKR
As usually defined, the EC50 is the concentration giving half of the maximal effect. The low end stands for greater potency, the high end for weaker potency. B3: in [5], the EC50 turned out to be 6.16 ng/mL. Also, the “IC50 value (ng/mL), inhibition of the catalytic effect of FXIa on fluorescent substrate I-1575” value in assay [6] amounted to 70 ng/mL. In [4], the Kd was 0.374 nM, the koff turned out to be 0.00034 s⁻¹ and the kon worked out at 910000 M⁻¹ s⁻¹. Moreover, in assay [3], the Kd was determined as 1.19 nM, the koff turned out to be 0.00109 s⁻¹ and the kon was found to be 918000 M⁻¹ s⁻¹.

B4: humanized antibody 36G9.10-hz73 (antibody, human IgG1, kappa, N297A, V domains shown)
VH: EVQLVQSGAEVKKPGATVKISCKASGFNIKDTYIHWVQQAPGKGLEWMGRIDPANDNTIYAEKFQGRVTITADTSTNTAYMELSSLRSEDTAVYYCAQDYDGFAMDYWGQGTLVTVSS
VL: DIQMTQSPSSLSASVGDRVTITCKASQDINKYITWFQQKPGKAPKLLIHYTSTLQPGVPSRFSGSGSGRDYTLTISSLQPEDFATYYCLQYDYLLTFGGGTKVEIKR
The molecule B4 came in with an EC50 in assay [5] of 2.49 ng/mL. For the same molecule, a half-maximal response in assay [7] (EC50) required 9.68 ng/mL. Besides, the “IC50 value (ng/mL), inhibition of the catalytic effect of FXIa on fluorescent substrate I-1575” value in assay [6] was found to be 26.2 ng/mL. Further, in [4], the Kd came to 0.0103 nM, the off-rate constant (koff) was 6.51e-05 s⁻¹ and the association rate constant (kon) turned out to be 6.31e+06 M⁻¹ s⁻¹. Moreover, in assay [8], the “APTT detection (EC50, nM), sample at 0 days” value came to 18.4 nM; the “APTT detection (EC50, nM), sample stored at 25° C. for 28 days” value is 17.4 nM; the “APTT detection (EC50, nM), sample stored at 40° C. for 14 days” value is 20.3 nM; the “APTT detection (EC50, nM), sample stored at 40° C. for 28 days” value is 26.9 nM. Also, the “APTT in human plasma, fold prolongation” value in assay [9] amounted to 2.2 times.

B5: humanized antibody 36G9.10-hz43 (antibody, human IgG1, kappa, N297A, V domains shown)
VH: QVQLVQSGAEVKKPGASVKVSCKASGFNIKDTYIHWVRQAPGQGLEWIGRIDPANDNTNYAQKFQGRVTMTADTSINTAYMELSRLRSDDTAVYYCAQDYDGFAMDYWGQGTLVTVSS
VL: DIQMTQSPSSLSASVGDRVTITCKASQDINKYITWFQQKPGKAPKLLIHYTSTLQPGVPSRFSGSGSGRDYTLTISSLQPEDFATYYCLQYDYLLTFGGGTKVEIKR
For the molecule B5, in [4], the Kd amounted to 0.0441 nM, the koff stood at 0.000255 s⁻¹ and the kon amounted to 5.77e+06 M⁻¹ s⁻¹.

B6: humanized antibody 36G9.10-hz93 (antibody, human IgG1, kappa, N297A, V domains shown)
VH: EVQLVQSGAEVKKPGATVKISCKASGFNIKDTYIHWVQQAPGKGLEWIGRIDPANDNTKYDPKFQGRVTITADTSTNTAYMELSSLRSEDTAVYYCAQDYDGFAMDYWGQGTLVTVSS
VL: DIQMTQSPSSLSASVGDRVTITCKASQDINKYITWFQQKPGKAPKLLIHYTSTLQPGVPSRFSGSGSGRDYTLTISSLQPEDFATYYCLQYDYLLTFGGGTKVEIKR
As for B6, in assay [4], the Kd turned out to be 0.00881 nM, the koff is 5.34e-05 s⁻¹ and the kon came out at 6.06e+06 M⁻¹ s⁻¹.

B7: humanized antibody 36G9.10-hz74 (antibody, human IgG1, kappa, N297A, V domains shown)
VH: EVQLVQSGAEVKKPGATVKISCKASGFNIKDTYIHWVQQAPGKGLEWMGRIDPANDNTIYAEKFQGRVTITADTSTNTAYMELSSLRSEDTAVYYCAQDYDGFAMDYWGQGTLVTVSS
VL: DIQMTQSPSSLSASVGDRVTITCKASQDINKYITWYQQKPGKAPKLLIYYTSTLQPGVPSRFSGSGSGTDFTFTISSLQPEDIATYYCLQYDYLLTFGGGTKVEIKR
In assay [4], B7 registered a Kd of 0.00798 nM, a koff of 5.16e-05 s⁻¹ and a kon of 6.47e+06 M⁻¹ s⁻¹.

B8: humanized antibody 36G9.10-hz92 (antibody, human IgG1, kappa, N297A, V domains shown)
VH: EVQLVQSGAEVKKPGATVKISCKASGFNIKDTYIHWVQQAPGKGLEWIGRIDPANDNTKYDPKFQGRVTITADTSTNTAYMELSSLRSEDTAVYYCAQDYDGFAMDYWGQGTLVTVSS
VL: DIQMTQSPSSLSASVGDRVTITCKASQDINKYITWFQQKPGKAPKLLIHYTSTLQPGVPSRFSGSGSGTDFTLTISSLQPEDFATYYCLQYDYLLTFGGGTKVEIKR
In assay [4], B8 had a Kd of 0.0152 nM, a koff of 7.69e-05 s⁻¹ and a kon of 5.07e+06 M⁻¹ s⁻¹.
